According to patent US7078197:

Target: 35S-labeled mRNA-peptide fusion prepared from mRNA 1 crosslinked to linker B, encoding the Flag and Strep-Tag II epitope
Test: precipitation of 35S-labeled fusion on affinity resin, wash, scintillation counting

fusion binding (percent bound) [%]	Substance
62	StrepTactin Sepharose (Genosys, Tex.)
54	Anti-Flag M2 Affinity Gel (Sigma, MO) (antibody)
